Assay: soluble on expression in E. coli; label from the status in PepcDB or PDB records
With “MAHQEHFQFGYRRHRDQDRQDPARHPVVVVGAGPVGLSLAIDLAQRGQNVVLLDDADRIGEGSRAICFSKRALEVWDRLGVGAQMVEKGVVWQVGKIFRRDEMVYRFDLLPETGHKMPAFINLQQYYAEAFLVGRVQQLPQIDLRWRNKVTALAQHNDHAELTIETPDGPYRLAADYVIACDGARSSLRGMVGAEFAGEVFEDQFLIADVKMTAAFPTERWFWFDPPFHSGQSALLHRQPDDVWRIDLQIGPEADAAVERQPERVRPRIERMLGHGDFSFEWISIYKFQCRRMQRFLHERVIFAGDSAHQVSPFGARGANSGLEDGENLAWKLDLVLRGQAPASLLDSYDIERSQAADDNIRHSTRSTDFIAPHSKQERRLRDAVLALAHDVEFAKRMVNAGRLSTPSVYQSSLSTDDVDVWSSGPVPGAAMRDAPLRAADGTLVYLTEAFMQAGGGFVLLERANGAAAPVPQGVRSLRIGGDAPLRDDEGVFAARYDATPGAAYLLRPDGYVAARFRHPTQAAVDAALARACGRLEHHHHHH” the “soluble on expression in E. coli” value was “not soluble”.
For “MSYDVIVRNGLWFDGTGRPPQVRTLGIRDGVVATVSAKPLDETGCPEVIDAGGKWVVPGFIDVHTHYDAEVLLDPGLRESVRHGVTTVLLGMCSLSTVYSDAEDAADLFSRVEAVPRQFVLGALESRKTWSNPAEYVAAIDALPLGPNIASLLGHSDLRASVLGLDRATTRGVVPTDDELETMADRLDAALDAGMLGMSGMDAAIDKLDGDRFRSRALPSTFATWRERRRLIKVLRKRGRILQSAPNVAKAQEALNFFLESSSLFGRRRGVRMSLLVSADAKSSPGAARVIGMGTRLLNKTLDAKVRFQHLPVPFELYSDGIDLPVFEEFGAGTAALHLRDQLERNKLLADPEYRRRFRRSFDRRKLGPTLWHRDFHDATIVECPDESLIGKTFGRIADERGIHPLDAFLDVLVDNGEKNVRWTTIVANHRPKVLDQLANDPAVHMGFSDAGAHLRNMAFYNYPLRLLKRVRDAQLSGRPFLTTERAVYRLTAEVADWFGVDAGTLREGDRADFVVIDPNCLNSDVDAYHEETVPFYGGLSRMVNRNDDAVVATAVNGTVVFGKGEFRDGYGDTVKSGRYLRAGADSRLKTAVLEHHHHHH”, the “soluble on expression in E. coli” value was “not soluble”.
For “MYNETPIKRRPSTRIYVGNVPIGDGAPIAVQSMTNTKTTDVEATVAQIRALEKVGADIVRVSVPTMDAAEAFKLIKQSVSVPLVADIHFDYRIALKVAEYGVDCLRINPGNIGNEERIRSVVECARDKNIPIRIGVNGGSLEKDLMDKYKEPTPEALLESAMRHVDILDRLNFDQFKVSVKASDVFLAVESYRLLAKQIRQPLHLGITEAGGARAGAVKSAVGLGMLLAEGIGDTLRISLAADPVEEIKVGFDILKSLRIRSRGINFIACPSCSRQEFDVISTVNELERRLEDVTTAMDVSIIGCVVNGPGEALVSHIGLTGGHRKSGYYDEGERQKERFDNDNLVDSLEAKIRAKASQMANRIQVKDTTEAAALEHHHHHH”, the “soluble on expression in E. coli” value was “not soluble”.
For “SNAMSGNGNAAATAEENSPKMRVIRVGTRKSQLARIQTDSVVATLKASYPGLQFEIIAMSTTGDKILDTALSKIGEKSLFTKELEHALEKNEVDLVVHSLKDLPTVLPPGFTIGAICKRENPHDAVVFHPKFVGKTLETLPEKSVVGTSSLRRAAQLQRKFPHLEFRSIRGNLNTRLRKLDEQQEFSAIILATAGLQRMGWHNRVGQILHPEECMYAVGQGALGVEVRAKDQDILDLVGVLHDPETLLRCIAERAFLRHLEGGCSVPVAVHTAMKDGQLYLTGGVWSLDGSDSIQETMQATIHVPAQHEDGPEDDPQLVGITARNIPRGPQLAAQNLGISLANLLLSKGAKNILDVARQLNDAH”, the “soluble on expression in E. coli” value was “soluble”.
In the case of “MGSDKIHHHHHHMNELQNFNFEGNEVRTVLINDEPYFVGKDVATAIGYQNTRKAIKDHVKTKYMREERIVTPSGTQTMTVISEPGIYQLAGQSKLPTAEPFQDWIYEEVLPSIRKHGAYMTDEKIEEALLNPDTIISLATQLKNEREKVEVERNGRLIAEQRVEELQPKADYYDQILSNKGVVTVTSIAKNYGMTAPELNKLLNRLGVQYSQSGSWYLYKKYQKNGYTHTIPVPYSHRDGRPDIKPQTKWTQKGHIFIYQLLKEHGILPMIEMKDESAV”, the “soluble on expression in E. coli” value is reported as “not soluble”.
For “GPLGSMPYSDAKAMLDEVAKIRELGVQRVTRIENLENAKKLWDNANSMLEKGNISGYLKAANELHKFMKEKNLKEDDLRPELSDKTISPKGYAILQSLWGAASDYSRAAATLTESTVEPGLVSAVNKMSAFFMDCKLSPNERATPDPDFKVGKSKILVGIMQFIKDVADPTSKIWMHNTKALMNHKIAAIQKLERSNNVNDETLESVLSSKGENLSEYLSYKYATKDEGREHRYTASTENFKNVKEKYQQMRGDALKTEILADFKDKLAEATDEQSLKQIVAELKSKDEYRILAKGQGLTTQLLGLKTSSVSSFEKMVEETRESIKSQERQTIKIK”, the “soluble on expression in E. coli” value was “soluble”.
For “MSLIINNIALHFLSKKEETGEVVLRLGPENAEFAQENAKVTNFVDGLHAIYNAKGSKAYGSFSSMPSEGDSARFVDLMESYLTEQQNFYDFSVQAGNVLKNEIEKYDIEETGYFVICHYEYMGGRYLFVAVIPVSEHYSVDGELNISAAQHLDTNKLQLAARIDLFDYKDNSQGNRYISFVKGRAGRKVSDFFLDFLGCEEGLNSKEQTQTLVQAVEDYVSVNQLDPAEKQKTRKDLLSYCKEQKASSQDVSLQEVGKVIESAGTEQDFYQFCQTQSYPIEESFPHEQAVVNKITKYSGYGNGISLSFERSHFGEDVVYNPHNDSLIIYKVPPNLKEQLMALLDSEKVETDLEHHHHHH”, the “soluble on expression in E. coli” value was “not soluble”.
For “MGSDKIHHHHHHMKKNGTTNSNGGNLGFEADLFKAADKLRGNMEPSDYKHVALGLIFLKYISDAFEARHQALLAEDPRAAEDRDEYLADNVFWVPKEARWSHLRANARRPEIGLLIDEAMRAIEKENESLKGVLPKDYARPALNKVMLGELIDLISGIALGEEGDRSKDILGRVYEYFLGQFAGAEGKRGGEFYTPRSVVRVLVEMLEPYHGRVYDPCCGSGGMFVQSEKFVQEHGGRIGDIAIYGQESNYTTWRLCKMNLAVRGIDADIRWNNEGSFHKDELRDLKADFILANPPFNISDWGGERLREDVRWSFGVPPVGNANYAWLQHIHHHLAPNGTAGVVLANGSMSSNQSGEGEIRKAMVEADVVDCMVALPGQLFYSTQIPACLWFLARNKNPGKGLRDRRGQVLFIDARKLGVLVDRTRRELTDAEIQKIADTYHAWRGEPDAGEYQDVPGFCKSATLEEIRKHGFVLTPGRYVGAAQQEDDGEPFEEKMARLAAQWREQRAAAAKLDAAIEANLKELGYGG”, the “soluble on expression in E. coli” value was “not soluble”.
In the case of “MSLPTTSSPLTNDQEFAKPVRNGKIFENPKSFTNWGGRPGLTNIFKLVLRETSHENLPSDKKVLDSTLPVHNITADDFHSESGLFATWLGHATVLVDLEGVKFVTDPVWADRASFTSFAGPKRYRPPPMKLEDLPDLDFAVVSHDHYDHLDADAVKRITNLNPQIKWFVPLGLKKWMKNQGIGADGSNTVTELNWGESSEFVKNGKTITIWCLPAQHSGQRGLSDHNHRLWSGWAVIGENRRFYFPGDTGFCDVEFKKIGEKLGPFDLAAIPIGAYEPRWFMKSHHINPDEAVEVHKLVRARNSIGIHWGTYPMGTTEYYLEPRDKLKELMDAREDLKDTSFVTVDMGEIWEASDR”, the “soluble on expression in E. coli” value is reported as “not soluble”.
In the case of “MSLKQPTSTTVTRTDYLKHKVKVPKHPKRIVASYLEDDLVALGIKPVVQWSVKNGSGTQAYLKEQLKGVPLIDYSLPYEAVTKAKPDLILIGTSSAVANGKYAQYNKIAPTYVVKNGTTVTWRQTFLDVAKVVNRQAKAKKVLAKYDKQVQTTRQALKKSGQHKVAVLWVTNNTAYMVNDNSASGALLYQDLQLGEPSLVKQVSKSATADWSAVSLEKLAKLDADDIFLVNSQKSASLFKDPLWKNIKAVKNNHLYQYGDSSSWQYSGPIAYSQMIDMVKTDLLKEGHHHHHH”, the “soluble on expression in E. coli” value is reported as “soluble”.
For “MSLTRLLIRDFRNIETADLALSPGFNFLVGANGSGKTSVLEAIYTLGHGRAFRSLQIGRVIRHEQEAFVLHGRLQGEERETAIGLTKDKQGDSKVRIDGTDGHKVAELAHLMPMQLITPEGFTLLNGGPKYRRAFLDWGCFHNEPGFFTAWSNLKRLLKQRNAALRQVTRYEQLRPWDKELIPLAEQISTWRAEYSAGIAADMADTCKQFLPEFSLTFSFQRGWEKETEYAEVLERNFERDRQLTYTAHGPHKADLRIRADGAPVEDTLSRGQLKLLMCALRLAQGEFLTRESGRRCLYLIDDFASELDDERRGLLASRLKATQSQVFVSAISAEHVIDMSDENSKMFTVEKGKITD”, the “soluble on expression in E. coli” value was “soluble”.
In the case of “MSLRERVKAHPKPADEQLLTRIRDHSISMLLNFLNSMFDGVDDSFFELANHAHTNNEQNRYFEAMREIRIKRKGIENHFQQELARLFNQPPSQHKTSESLSDNVDVDVLSLVQNDALEESVAINSMISKARANFSGSLLQFQTRVSSVYGETNEENAVNPLDPEHICKAFSDACIGLDIEIKEKLIVYKQFDRYVMGNLVECLEEANKIMIQAGVMPNLKYTAKKSRVTPRSTSDVSARPLEAQSDANGYDGAGDVFSQVQELLSALRNTASNPEQQQGDPNTGAGGRQAPPPGNVQFIADADLLSILSRLQHSVRTENLAEGPVVALDLRTAVQGLLSEESQKSGKATALDQIDEDLINLVSMLFEFILDDYNLSAPIQVLISRLQIPILKVAIRDKSFFSKPSHPARKLLNALAKAGIGWSDASEKKRDKLYEQIHRAVQRILEEFNGESELFEEIYQEFSQYLSREERKAKLVEQRTKEAEIGRVKSHKAHQVVEQILSEKIAAQPLPPVAVELLRGGWSRVMFLAYLKEDTEHRLNQCTKVVDELTWCLQPHAEVEARQRWVKVVPQLLKNLKAGLKEVSYNSAKLEHMLGELKKALTETFKQQSITSAQNDAPKPPAPVAAVIEQKLTPAIKTAVERQSEYEDAALAEYLTKIDEMECGAWIEFSLVNGTRFRCKLSTKIEDSDTYIFVNRLGLKVVEKTRGELAHELRKGRIKALEEGLLFDRAMNAVIGNLRKMSGEGHHHHHH”, the “soluble on expression in E. coli” value is reported as “soluble”.
In the case of “MNRTAMRASQKDFENSMNQVKLLKKDPGNEVKLKLYALYKQATEGPCNMPKPGVFDLINKAKWDAWNALGSLPKEAARQNYVDLVSSLSPSLESSSQVEPGTDRKSTGFETLVVTSEDGITKIMFNRPKKKNAINTEMYHEIMRALKAASKDDSIITVLTGNGDYYSSGNDLTNFTDIPPGGVEEKAKNNAVLLREFVGCFIDFPKPLIAVVNGPAVGISVTLLGLFDAVYASDRATFHTPFSHLGQSPEGCSSYTFPKIMSPAKATEMLIFGKKLTAGEACAQGLVTEVFPDSTFQKEVWTRLKAFAKLPPNALRISKEVIRKREREKLHAVNAEECNVLQGRWLSDECTNAVVNFLSRKSKL”, the “soluble on expression in E. coli” value is reported as “not soluble”.
For “MRYLTAGESHGPRLTAIIEGIPAGLPLTAEDINEDLRRRQGGYGRGGRMKIENDQVVFTSGVRHGKTTGAPITMDVINKDHQKWLDIMSAEDIEDRLKSKRKITHPRPGHADLVGGIKYRFDDLRNSLERSSARETTMRVAVGAVAKRLLAELDMEIANHVVVFGGKEIDVPENLTVAEIKQRAAQSEVSIVNQEREQEIKDYIDQIKRDGDTIGGVVETVVGGVPVGLGSYVQWDRKLDARLAQAVVSINAFKGVEFGLGFEAGYRKGSQVMDEILWSKEDGYTRRTNNLGGFEGGMTNGQPIVVRGVMKPIPTLYKPLMSVDIETHEPYKATVERSDPTALPAAGMVMEAVVATVLAQEILEKFSSDNLEELKEAVAKHRDYTKNY”, the “soluble on expression in E. coli” value was “soluble”.
In the case of “STNNNPAPLLGFRIAHLLEQEPDTKDLTINVKTEILKHEFGPIKSSFSFSPHKFFEEDVKKQELYFFLIAVGIEEDDAKLMMTDMIFYVLGNIDELRGVLTLLLKVQFPSFEPIEEH”, the “soluble on expression in E. coli” value is reported as “soluble”.

Reference: the DeepSol protein solubility set
